# From patent US20120311746A1
# Target: receptors in brush border membrane vesicles produced from Spodoptera frugiperda (fall armyworm, FAW)
# Experiment: competitive displacement of 0.5 nM ^125I Cry1Be (competitor) from FAW BBMV
substance,measurement,value
Cry1Fa protein from Bacillus thuringiensis (from UniProt Q03746 28-605) (ligand),concentration at which displacement of ^125I Cry1Be is effective,> 100 nM
